# Assay results from the supplement of paper PMC10567573.
# B1: LRRC45 (parent)
# chain: FQTRQEMTSMSAELKMRAIQAEER
# Variants of: B1
# Assay: protein stability index of a GFP-peptide fusion (GPS, HEK-293T) (PSI 1-6); higher = more stable
# Conditions: c terminus: a fixed tail appended
# 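Note: lentivirally expressed fusions sorted by FACS into six bins by GFP to DsRed ratio, PSI derived from sequencing read proportions per bin multiplied by bin number.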
row,Variant,protein stability index
1,FQTRQEMTSMSAEAKMRAIQAEER,4.16
2,FQTRQEMTSMSAECKMRAIQAEER,3.72
3,FQTRQEMTSMSAEDKMRAIQAEER,3.89
4,FQTRQEMTSMSAEEKMRAIQAEER,3.99
5,FQTRQEMTSMSAEFKMRAIQAEER,3.21
6,FQTRQEMTSMSAEGKMRAIQAEER,4.24
7,FQTRQEMTSMSAEHKMRAIQAEER,4.34
8,FQTRQEMTSMSAEIKMRAIQAEER,4.13
9,FQTRQEMTSMSAEKKMRAIQAEER,4.12
10,FQTRQEMTSMSAEMKMRAIQAEER,3.83
11,FQTRQEMTSMSAENKMRAIQAEER,4.18
12,FQTRQEMTSMSAEPKMRAIQAEER,3.99
13,FQTRQEMTSMSAEQKMRAIQAEER,4.28
14,FQTRQEMTSMSAERKMRAIQAEER,4.23
15,FQTRQEMTSMSAESKMRAIQAEER,4.11
16,FQTRQEMTSMSAETKMRAIQAEER,4.38
17,FQTRQEMTSMSAEVKMRAIQAEER,4.21
18,FQTRQEMTSMSAEWKMRAIQAEER,3.2
19,FQTRQEMTSMSAEYKMRAIQAEER,3.74
20,FQTRQEMTSMSAELAMRAIQAEER,4.16
21,FQTRQEMTSMSAELCMRAIQAEER,3.86
22,FQTRQEMTSMSAELDMRAIQAEER,4.65
23,FQTRQEMTSMSAELEMRAIQAEER,4.88
24,FQTRQEMTSMSAELFMRAIQAEER,2.97

row,Variant,protein stability index
1,FQTRQEMTSMSAELGMRAIQAEER,4.2
2,FQTRQEMTSMSAELHMRAIQAEER,4.16
3,FQTRQEMTSMSAELIMRAIQAEER,3.27
4,FQTRQEMTSMSAELLMRAIQAEER,3.05
5,FQTRQEMTSMSAELMMRAIQAEER,3.26
6,FQTRQEMTSMSAELNMRAIQAEER,4.26
7,FQTRQEMTSMSAELPMRAIQAEER,4.38
8,FQTRQEMTSMSAELQMRAIQAEER,4.12
9,FQTRQEMTSMSAELRMRAIQAEER,4.38
10,FQTRQEMTSMSAELSMRAIQAEER,4.23
11,FQTRQEMTSMSAELTMRAIQAEER,4.01
12,FQTRQEMTSMSAELVMRAIQAEER,3.29
13,FQTRQEMTSMSAELWMRAIQAEER,2.88
14,FQTRQEMTSMSAELYMRAIQAEER,3.59
15,FQTRQEMTSMSAELKARAIQAEER,4.39
16,FQTRQEMTSMSAELKCRAIQAEER,3.79
17,FQTRQEMTSMSAELKDRAIQAEER,4.38
18,FQTRQEMTSMSAELKERAIQAEER,4.68
19,FQTRQEMTSMSAELKFRAIQAEER,3.75
20,FQTRQEMTSMSAELKGRAIQAEER,4
21,FQTRQEMTSMSAELKHRAIQAEER,3.88
22,FQTRQEMTSMSAELKIRAIQAEER,3.52
23,FQTRQEMTSMSAELKKRAIQAEER,4.36
24,FQTRQEMTSMSAELKLRAIQAEER,4.24

row,Variant,protein stability index
1,FQTRQEMTSMSAELKNRAIQAEER,4.16
2,FQTRQEMTSMSAELKPRAIQAEER,3.98
3,FQTRQEMTSMSAELKQRAIQAEER,4.03
4,FQTRQEMTSMSAELKRRAIQAEER,4.21
5,FQTRQEMTSMSAELKSRAIQAEER,4.37
6,FQTRQEMTSMSAELKTRAIQAEER,3.96
7,FQTRQEMTSMSAELKVRAIQAEER,3.99
8,FQTRQEMTSMSAELKWRAIQAEER,3.66
9,FQTRQEMTSMSAELKYRAIQAEER,3.83
10,FQTRQEMTSMSAELKMAAIQAEER,4.34
11,FQTRQEMTSMSAELKMCAIQAEER,4.01
12,FQTRQEMTSMSAELKMDAIQAEER,4.59
13,FQTRQEMTSMSAELKMEAIQAEER,4.33
14,FQTRQEMTSMSAELKMFAIQAEER,2.84
15,FQTRQEMTSMSAELKMGAIQAEER,3.82
16,FQTRQEMTSMSAELKMHAIQAEER,4.09
17,FQTRQEMTSMSAELKMIAIQAEER,3.94
18,FQTRQEMTSMSAELKMKAIQAEER,4.25
19,FQTRQEMTSMSAELKMLAIQAEER,3.95
20,FQTRQEMTSMSAELKMMAIQAEER,4.18
21,FQTRQEMTSMSAELKMNAIQAEER,4.07
22,FQTRQEMTSMSAELKMPAIQAEER,4.33
23,FQTRQEMTSMSAELKMQAIQAEER,3.89
24,FQTRQEMTSMSAELKMSAIQAEER,3.43

row,Variant,protein stability index
1,FQTRQEMTSMSAELKMTAIQAEER,4.08
2,FQTRQEMTSMSAELKMVAIQAEER,3.75
3,FQTRQEMTSMSAELKMWAIQAEER,2.3
4,FQTRQEMTSMSAELKMYAIQAEER,3.67
5,FQTRQEMTSMSAELKMRCIQAEER,3.69
6,FQTRQEMTSMSAELKMRDIQAEER,4.33
7,FQTRQEMTSMSAELKMREIQAEER,4.08
8,FQTRQEMTSMSAELKMRFIQAEER,3.51
9,FQTRQEMTSMSAELKMRGIQAEER,3.81
10,FQTRQEMTSMSAELKMRHIQAEER,3.33
11,FQTRQEMTSMSAELKMRIIQAEER,3.75
12,FQTRQEMTSMSAELKMRKIQAEER,3.72
13,FQTRQEMTSMSAELKMRLIQAEER,3.92
14,FQTRQEMTSMSAELKMRMIQAEER,3.73
15,FQTRQEMTSMSAELKMRNIQAEER,3.88
16,FQTRQEMTSMSAELKMRPIQAEER,3.45
17,FQTRQEMTSMSAELKMRQIQAEER,3.85
18,FQTRQEMTSMSAELKMRRIQAEER,3.96
19,FQTRQEMTSMSAELKMRSIQAEER,3.82
20,FQTRQEMTSMSAELKMRTIQAEER,3.95
21,FQTRQEMTSMSAELKMRVIQAEER,3.41
22,FQTRQEMTSMSAELKMRWIQAEER,3.54
23,FQTRQEMTSMSAELKMRYIQAEER,3.69
24,FQTRQEMTSMSAELKMRAAQAEER,4.53

row,Variant,protein stability index
1,FQTRQEMTSMSAELKMRACQAEER,3.96
2,FQTRQEMTSMSAELKMRADQAEER,4.73
3,FQTRQEMTSMSAELKMRAEQAEER,4.55
4,FQTRQEMTSMSAELKMRAFQAEER,3.81
5,FQTRQEMTSMSAELKMRAGQAEER,3.89
6,FQTRQEMTSMSAELKMRAHQAEER,4.38
7,FQTRQEMTSMSAELKMRAKQAEER,4.68
8,FQTRQEMTSMSAELKMRALQAEER,4.08
9,FQTRQEMTSMSAELKMRAMQAEER,3.84
10,FQTRQEMTSMSAELKMRANQAEER,4.27
11,FQTRQEMTSMSAELKMRAPQAEER,3.84
12,FQTRQEMTSMSAELKMRAQQAEER,4.09
13,FQTRQEMTSMSAELKMRARQAEER,4.19
14,FQTRQEMTSMSAELKMRASQAEER,4.38
15,FQTRQEMTSMSAELKMRATQAEER,4.21
16,FQTRQEMTSMSAELKMRAVQAEER,4.28
17,FQTRQEMTSMSAELKMRAWQAEER,3.04
18,FQTRQEMTSMSAELKMRAYQAEER,3.8
19,FQTRQEMTSMSAELKMRAIAAEER,4.3
20,FQTRQEMTSMSAELKMRAICAEER,3
21,FQTRQEMTSMSAELKMRAIDAEER,3.99
22,FQTRQEMTSMSAELKMRAIEAEER,4.34
23,FQTRQEMTSMSAELKMRAIFAEER,2.26
24,FQTRQEMTSMSAELKMRAIGAEER,3.62

row,Variant,protein stability index
1,FQTRQEMTSMSAELKMRAIHAEER,3.98
2,FQTRQEMTSMSAELKMRAIIAEER,2.8
3,FQTRQEMTSMSAELKMRAIKAEER,3.5
4,FQTRQEMTSMSAELKMRAILAEER,3.57
5,FQTRQEMTSMSAELKMRAIMAEER,3.52
6,FQTRQEMTSMSAELKMRAINAEER,3.83
7,FQTRQEMTSMSAELKMRAIPAEER,3.76
8,FQTRQEMTSMSAELKMRAIRAEER,3.2
9,FQTRQEMTSMSAELKMRAISAEER,4.11
10,FQTRQEMTSMSAELKMRAITAEER,3.9
11,FQTRQEMTSMSAELKMRAIVAEER,3.28
12,FQTRQEMTSMSAELKMRAIWAEER,2.74
13,FQTRQEMTSMSAELKMRAIYAEER,3.08
14,FQTRQEMTSMSAELKMRAIQCEER,3.68
15,FQTRQEMTSMSAELKMRAIQDEER,4.63
16,FQTRQEMTSMSAELKMRAIQEEER,4.32
17,FQTRQEMTSMSAELKMRAIQFEER,3.89
18,FQTRQEMTSMSAELKMRAIQGEER,3.97
19,FQTRQEMTSMSAELKMRAIQHEER,4.03
20,FQTRQEMTSMSAELKMRAIQIEER,3.49
21,FQTRQEMTSMSAELKMRAIQKEER,3.76
22,FQTRQEMTSMSAELKMRAIQLEER,4
23,FQTRQEMTSMSAELKMRAIQMEER,3.57
24,FQTRQEMTSMSAELKMRAIQNEER,4.15

row,Variant,protein stability index
1,FQTRQEMTSMSAELKMRAIQPEER,3.89
2,FQTRQEMTSMSAELKMRAIQQEER,3.79
3,FQTRQEMTSMSAELKMRAIQREER,3.8
4,FQTRQEMTSMSAELKMRAIQSEER,3.81
5,FQTRQEMTSMSAELKMRAIQTEER,3.83
6,FQTRQEMTSMSAELKMRAIQVEER,3.59
7,FQTRQEMTSMSAELKMRAIQWEER,3.43
8,FQTRQEMTSMSAELKMRAIQYEER,3.76
9,FQTRQEMTSMSAELKMRAIQAAER,3.56
10,FQTRQEMTSMSAELKMRAIQACER,3.18
11,FQTRQEMTSMSAELKMRAIQADER,3.64
12,FQTRQEMTSMSAELKMRAIQAFER,2.56
13,FQTRQEMTSMSAELKMRAIQAGER,2.53
14,FQTRQEMTSMSAELKMRAIQAHER,2.92
15,FQTRQEMTSMSAELKMRAIQAIER,3.1
16,FQTRQEMTSMSAELKMRAIQAKER,3.57
17,FQTRQEMTSMSAELKMRAIQALER,2.59
18,FQTRQEMTSMSAELKMRAIQAMER,3.64
19,FQTRQEMTSMSAELKMRAIQANER,3.44
20,FQTRQEMTSMSAELKMRAIQAPER,2.74
21,FQTRQEMTSMSAELKMRAIQAQER,3.37
22,FQTRQEMTSMSAELKMRAIQARER,3.18
23,FQTRQEMTSMSAELKMRAIQASER,3.28
24,FQTRQEMTSMSAELKMRAIQATER,3.23

row,Variant,protein stability index
1,FQTRQEMTSMSAELKMRAIQAVER,3.18
2,FQTRQEMTSMSAELKMRAIQAWER,2.56
3,FQTRQEMTSMSAELKMRAIQAYER,3.9
4,FQTRQEMTSMSAELKMRAIQAEAR,3.16
5,FQTRQEMTSMSAELKMRAIQAECR,2.61
6,FQTRQEMTSMSAELKMRAIQAEDR,3.33
7,FQTRQEMTSMSAELKMRAIQAEFR,2.99
8,FQTRQEMTSMSAELKMRAIQAEGR,3.56
9,FQTRQEMTSMSAELKMRAIQAEHR,3.39
10,FQTRQEMTSMSAELKMRAIQAEIR,3.7
11,FQTRQEMTSMSAELKMRAIQAEKR,3.53
12,FQTRQEMTSMSAELKMRAIQAELR,3.1
13,FQTRQEMTSMSAELKMRAIQAEMR,3.16
14,FQTRQEMTSMSAELKMRAIQAENR,3.32
15,FQTRQEMTSMSAELKMRAIQAEPR,3.81
16,FQTRQEMTSMSAELKMRAIQAEQR,4.11
17,FQTRQEMTSMSAELKMRAIQAERR,3.54
18,FQTRQEMTSMSAELKMRAIQAESR,3.52
19,FQTRQEMTSMSAELKMRAIQAETR,3.16
20,FQTRQEMTSMSAELKMRAIQAEVR,3.22
